# In the supplement of paper PMC9112550, “Optimization of the antimicrobial peptide Bac7 by deep mutational scanning” (BMC Biology, 2022):
# System: Escherichia coli TOP10
# Test: shrunken log2 fold change of peptide-encoding DNA abundance (4.5 h post-induction vs induction); higher = less antimicrobial activity (less host growth inhibition)
# Conditions: time post-induction: 4.5 h; library: site-saturation at positions 5, 18, 19, 20
# 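Further: peptides expressed intracellularly from a pBAD plasmid library in pooled LB shake-flask culture, induced with 0.3% L-arabinose, DNA abundance read by NGS, three biological replicates, DESeq2 with apeglm shrinkage.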
row,Sequence,shrunken log2 fold change
1,RRIRKRPPRLPRPRPRPSLKPRP,-0.0893
2,RRIRKRPPRLPRPRPRPSLNPRP,-0.0764
3,RRIRKRPPRLPRPRPRPSNQPRP,-0.018
4,RRIRKRPPRLPRPRPRPSPIPRP,0.0333
5,RRIRKRPPRLPRPRPRPSPVPRP,0.191
6,RRIRKRPPRLPRPRPRPSQTPRP,0.026
7,RRIRKRPPRLPRPRPRPSRKPRP,0.0758
8,RRIRKRPPRLPRPRPRPSTGPRP,-0.284
9,RRIRKRPPRLPRPRPRPSVAPRP,0.394
10,RRIRKRPPRLPRPRPRPSVFPRP,0.244
11,RRIRKRPPRLPRPRPRPSVGPRP,0.0485
12,RRIRKRPPRLPRPRPRPSVWPRP,0.645
13,RRIRKRPPRLPRPRPRPTAAPRP,0.757
14,RRIRKRPPRLPRPRPRPTATPRP,1.4
15,RRIRKRPPRLPRPRPRPTAYPRP,0.185
16,RRIRKRPPRLPRPRPRPTDDPRP,1.01
17,RRIRKRPPRLPRPRPRPTDPPRP,0.0238
18,RRIRKRPPRLPRPRPRPTFFPRP,0.368
19,RRIRKRPPRLPRPRPRPTFQPRP,0.05
20,RRIRKRPPRLPRPRPRPTGQPRP,0.84
21,RRIRKRPPRLPRPRPRPTGSPRP,0.423
22,RRIRKRPPRLPRPRPRPTHAPRP,0.505

row,Sequence,shrunken log2 fold change
1,RRIRKRPPRLPRPRPRPTHVPRP,-0.305
2,RRIRKRPPRLPRPRPRPTKLPRP,0.246
3,RRIRKRPPRLPRPRPRPTLCPRP,0.403
4,RRIRKRPPRLPRPRPRPTLPPRP,0.878
5,RRIRKRPPRLPRPRPRPTNAPRP,0.733
6,RRIRKRPPRLPRPRPRPTPMPRP,0.555
7,RRIRKRPPRLPRPRPRPTQPPRP,0.606
8,RRIRKRPPRLPRPRPRPTRVPRP,0.53
9,RRIRKRPPRLPRPRPRPTRYPRP,0.438
10,RRIRKRPPRLPRPRPRPTSMPRP,0.508
11,RRIRKRPPRLPRPRPRPTTMPRP,0.171
12,RRIRKRPPRLPRPRPRPTVEPRP,0.377
13,RRIRKRPPRLPRPRPRPTVFPRP,0.0385
14,RRIRKRPPRLPRPRPRPTVLPRP,0.0143
15,RRIRKRPPRLPRPRPRPTWAPRP,0.0687
16,RRIRKRPPRLPRPRPRPTWLPRP,0.638
17,RRIRKRPPRLPRPRPRPTWNPRP,0.197
18,RRIRKRPPRLPRPRPRPTYEPRP,0.367
19,RRIRKRPPRLPRPRPRPTYWPRP,0.141
20,RRIRKRPPRLPRPRPRPVCMPRP,0.0492
21,RRIRKRPPRLPRPRPRPVCWPRP,0.897
22,RRIRKRPPRLPRPRPRPVCYPRP,0.242

row,Sequence,shrunken log2 fold change
1,RRIRKRPPRLPRPRPRPVDRPRP,0.248
2,RRIRKRPPRLPRPRPRPVDVPRP,0.116
3,RRIRKRPPRLPRPRPRPVEFPRP,0.192
4,RRIRKRPPRLPRPRPRPVFLPRP,-0.0387
5,RRIRKRPPRLPRPRPRPVFRPRP,0.278
6,RRIRKRPPRLPRPRPRPVFYPRP,-0.0751
7,RRIRKRPPRLPRPRPRPVGQPRP,0.0743
8,RRIRKRPPRLPRPRPRPVGTPRP,2.46
9,RRIRKRPPRLPRPRPRPVIGPRP,0.233
10,RRIRKRPPRLPRPRPRPVKFPRP,0.048
11,RRIRKRPPRLPRPRPRPVLWPRP,1.78
12,RRIRKRPPRLPRPRPRPVNGPRP,0.0996
13,RRIRKRPPRLPRPRPRPVNKPRP,0.22
14,RRIRKRPPRLPRPRPRPVRDPRP,0.48
15,RRIRKRPPRLPRPRPRPVRGPRP,0.732
16,RRIRKRPPRLPRPRPRPVTEPRP,0.42
17,RRIRKRPPRLPRPRPRPVTHPRP,0.0561
18,RRIRKRPPRLPRPRPRPVTIPRP,0.0361
19,RRIRKRPPRLPRPRPRPVTYPRP,-0.0821
20,RRIRKRPPRLPRPRPRPVVPPRP,-0.093
21,RRIRKRPPRLPRPRPRPVWGPRP,3.44
22,RRIRKRPPRLPRPRPRPWALPRP,-0.0102

row,Sequence,shrunken log2 fold change
1,RRIRKRPPRLPRPRPRPWCIPRP,-0.103
2,RRIRKRPPRLPRPRPRPWCTPRP,-0.0115
3,RRIRKRPPRLPRPRPRPWDDPRP,0.0248
4,RRIRKRPPRLPRPRPRPWDGPRP,-0.0231
5,RRIRKRPPRLPRPRPRPWFFPRP,-0.043
6,RRIRKRPPRLPRPRPRPWFHPRP,-0.838
7,RRIRKRPPRLPRPRPRPWFIPRP,-0.131
8,RRIRKRPPRLPRPRPRPWFKPRP,-0.0948
9,RRIRKRPPRLPRPRPRPWFLPRP,-0.157
10,RRIRKRPPRLPRPRPRPWKHPRP,-0.339
11,RRIRKRPPRLPRPRPRPWKTPRP,0.0649
12,RRIRKRPPRLPRPRPRPWLAPRP,0.201
13,RRIRKRPPRLPRPRPRPWLSPRP,0.0773
14,RRIRKRPPRLPRPRPRPWMAPRP,0.102
15,RRIRKRPPRLPRPRPRPWNYPRP,-0.154
16,RRIRKRPPRLPRPRPRPWQGPRP,0.0142
17,RRIRKRPPRLPRPRPRPWSDPRP,-0.0989
18,RRIRKRPPRLPRPRPRPWVNPRP,0.0319
19,RRIRKRPPRLPRPRPRPWWDPRP,-0.0115
20,RRIRKRPPRLPRPRPRPWWFPRP,-0.0467
21,RRIRKRPPRLPRPRPRPWWGPRP,0.0849
22,RRIRKRPPRLPRPRPRPWYGPRP,-0.188

row,Sequence,shrunken log2 fold change
1,RRIRKRPPRLPRPRPRPYAKPRP,-0.0729
2,RRIRKRPPRLPRPRPRPYCIPRP,-0.0175
3,RRIRKRPPRLPRPRPRPYEFPRP,0.101
4,RRIRKRPPRLPRPRPRPYEHPRP,0.049
5,RRIRKRPPRLPRPRPRPYGCPRP,-0.00151
6,RRIRKRPPRLPRPRPRPYHAPRP,0.0039
7,RRIRKRPPRLPRPRPRPYHHPRP,-0.247
8,RRIRKRPPRLPRPRPRPYILPRP,-0.0873
9,RRIRKRPPRLPRPRPRPYKHPRP,-0.347
10,RRIRKRPPRLPRPRPRPYKIPRP,-0.305
11,RRIRKRPPRLPRPRPRPYKRPRP,-0.338
12,RRIRKRPPRLPRPRPRPYNKPRP,-0.626
13,RRIRKRPPRLPRPRPRPYNWPRP,-0.155
14,RRIRKRPPRLPRPRPRPYPYPRP,-0.125
15,RRIRKRPPRLPRPRPRPYRGPRP,-0.231
16,RRIRKRPPRLPRPRPRPYSMPRP,-0.39
17,RRIRKRPPRLPRPRPRPYSSPRP,-0.239
18,RRIRKRPPRLPRPRPRPYVSPRP,-0.438
19,RRIRKRPPRLPRPRPRPYVTPRP,-0.401
20,RRIRKRPPRLPRPRPRPYWGPRP,-0.000921
21,RRIRKRPPRLPRPRPRPYWIPRP,-0.0363
